What was measured:
[1] = biological target: Abeta in AD (senile plaques) (Homo sapiens, UniProt P05067); experiment: immunostaining of cells or tissue
[2] = biological target: tau pathology in PSP and AD (Homo sapiens, UniProt P10636); experiment: immunostaining of cells or tissue
Chain of tau pathology in PSP and AD (P10636 whole entry): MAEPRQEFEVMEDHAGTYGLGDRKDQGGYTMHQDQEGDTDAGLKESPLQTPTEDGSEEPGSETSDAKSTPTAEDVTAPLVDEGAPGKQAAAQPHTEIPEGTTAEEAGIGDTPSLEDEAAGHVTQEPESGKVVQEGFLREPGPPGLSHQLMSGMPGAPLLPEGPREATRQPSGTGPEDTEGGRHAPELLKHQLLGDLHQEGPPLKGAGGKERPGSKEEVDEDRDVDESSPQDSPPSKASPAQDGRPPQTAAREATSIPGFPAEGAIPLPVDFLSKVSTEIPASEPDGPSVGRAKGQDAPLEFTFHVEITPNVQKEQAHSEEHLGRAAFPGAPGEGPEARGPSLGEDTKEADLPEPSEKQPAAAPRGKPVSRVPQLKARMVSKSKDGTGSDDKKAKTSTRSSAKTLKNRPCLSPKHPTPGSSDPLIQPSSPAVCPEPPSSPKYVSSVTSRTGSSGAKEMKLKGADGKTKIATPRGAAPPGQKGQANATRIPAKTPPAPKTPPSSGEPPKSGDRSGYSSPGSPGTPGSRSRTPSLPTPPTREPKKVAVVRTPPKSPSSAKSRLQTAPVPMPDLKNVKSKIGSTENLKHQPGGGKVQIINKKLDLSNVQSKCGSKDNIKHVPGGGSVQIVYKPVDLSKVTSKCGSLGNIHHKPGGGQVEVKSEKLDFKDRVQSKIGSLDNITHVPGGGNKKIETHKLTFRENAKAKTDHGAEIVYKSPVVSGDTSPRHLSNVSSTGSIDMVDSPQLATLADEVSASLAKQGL

binding result [1]: no binding (tested: 1:10000 dilution)
binding result [2]: no binding (tested: 1:10000 dilution)
B1: 306C7B3 (native IgG purified from the hybridoma clone) (antibody, V domains shown)
VH: EVQLVESGGGLVKPGGSRKLSCAASGFTFSDHGMHWVRQAPEKGLEWVAYISSGSSTIYYADTVKGRFTISRDNAKNTLFLQMTSLRSEDTAMYYCARSYIPYWGQGTLVTVSA
VL: DVVMTQTPLSLPVSLGDQASISCRSSQSLVHSNGNTYLHWYLQKPGQSPKLLIYKVSNRFSGVPDRFSGSGSGTDFTLKISRVEAEDLGVYFCSQSTHVPWTFGGGTKLEIK

Reference: article doi:10.1101/2022.11.30.518485 (bioRxiv, 2022)
